Laboratory results reported in patent publication US11976099B2, “Compositions and methods for treatment of bone associated diseases” (THE NATIONAL INSTITUTE FOR BIOTECHNOLOGY IN THE NEGEV LTD., priority 2016, dated 2024).

Key:
[1] = Dynamic light scattering (DLS); type: physicochemical; details: 0.5 mg/ml; angle of 90°
Description: Dynamic light scattering (DLS)—The hydrodynamic radii of M-CSFWT, M-CSFC31S and M-CSFC31S,M27R were determined using DLS. The proteins, in a concentration of 0.5 mg/ml, were filtered to remove aggregates and contaminants. Light scattering was measured at an angle of 90° three times, in two different experiments, resulting in a total of six measurements. […] An analysis of the solution was conducted to verify that the most abundant specie was in the size range of 1-10 nm. The peak for this specie was compared for the three different proteins, and the hydrodynamic radius of each was determined as the maximum of the peak.
Next, the size of the M-CSF variants was evaluated in solution. M-CSFWT, M-CSFC31S and M-CSFC31S,M27R at concentrations of 0.5 mg/ml were subjected to dynamic light scattering (DLS) analysis at an angle of 90°. The peaks for the most abundant species in each sample were compared (FIG. 16B), and an estimated hydrodynamic radius was calculated from each peak. […] To confirm that the oligomeric state of M-CSFC31S,M27R is not concentration dependent, all M-CSF variants were subjected to SAXS measurements at concentrations of 3, 5 and 7 mg/ml. Of note is that the Rg values remained within a similar range for M-CSFWT and M-CSFC31S. There was a slight increase in the Rg value of M-CSFC31S,M27R at higher concentrations, presumably due to an increase in interparticle interactions. […] To illustrate the oligomeric states of these three proteins in solution, low-resolution structures were reconstructed from the SAXS data. Ab initio models were reconstructed from SAXS data using the computer program GASBOR and were averaged by the computer program DAMAVER. The crystal structure of the M-CSF dimer and the structure of the monomer were aligned with the obtained SAXS models (yellow, M-CSFWT; green, M-CSFC31S; cyan, M-CSFC31S,M27R) using PyMOL (http://www.pymol.org).

[2] = tested on: murine bone marrow derived monocytes (BMMs) differentiating to osteoclasts; assay: Osteoclast differentiation assay of murine BMMs (TRAP staining); type: cell-based, mouse; details: for effect on osteoclast differentiation/formation: Example 9, FIG. 13, varying concentrations, five days; for number of osteoclasts and number of nuclei / osteoclast formation: Example 14; for osteoclast formation: 50, 1000 and 5000 nM with M-CSFWT and RANKL
Description: Primary cells differentiation assay—Murine primary cells were obtained as described in the murine primary cells section. Cells were washed with PBS and detached using a cell scraper, and 20,000 cells were plated in each well of a 96-well plate. Osteoclast differentiation was induced by culturing the cells in α-MEM containing 10% of fetal bovine serum (FBS), penicillin and streptomycin, […] M-CSF and 20 ng/ul RANKL (R&D Systems, USA). To determine the influence of the M-CSFRGD variants and the M-CSFM on the osteoclasts, the proteins were added to the differentiation medium (with M-CSF and RANKL) in three different concentrations (50 nM, 1 μM and 5 μM). After 72-96 h, once the cells had differentiated fully, they were fixated with 4% paraformaldehyde and stained using the tartrate-resistant acid phosphatase (TRAP) staining kit (Sigma-Aldrich, USA) according to manufacturer's protocol. As a positive control, PBS was used instead of the inhibitors, and negative controls comprised cells incubated in differentiation medium without RANKL and inhibitors. […] Cells in each image were counted in a double-blind manner and the number of nuclei in the osteoclasts and the total osteoclast surface area were determined using ImageJ software. Three repeats were performed for every condition, and each repeat was normalized to the positive control values.
Differentiation assay—BMMs and CD14+ cells were obtained and grown as described above. The plates containing the monocytes were washed with PBS; the cells were detached using a cell scraper for BMMs or Accutase (Biological industries, Israel) for CD14^+; and 2×10^4 BMMs or 1×10^4 CD14^+ cells were transferred to each well in a 96-well plate. Osteoclast differentiation was induced as described in the ‘phosphorylation assay’ section. To determine the influence of M-CSFC31S and the M-CSFC31S,M27R on osteoclast differentiation, the proteins were added to the differentiation medium (with M-CSF and RANKL) in different concentrations (50 nM, 1 μM and 5 μM for BMMs and 50 nM, 250 nM and 1 μM for CD14^+). To determine the influence of human M-CSFWT on the differentiation, it was added to the cells in different concentrations (50 nM 1 μM and 5 μM) without adding murine M-CSFWT. Once the cells were fully differentiated, they were fixed with 4% paraformaldehyde and stained using the tartrate-resistant acid phosphatase (TRAP) staining kit (Sigma-Aldrich, USA) according to the manufacturer's protocol. As the positive control, cells were incubated with M-CSF and RANKL without inhibitors, and the negative control was comprised of cells that were incubated in differentiation medium without RANKL. […] Cells in each image were counted in a double-blind manner, and the number of nuclei in the osteoclasts was determined using ImageJ software. For the positive control of BMMs, an average of 28.33 osteoclasts and 135 nuclei per well were counted. For CD14^+ positive control, the average numbers of osteoclasts and nuclei were 14.5 and 75, respectively, per well. The results for each parameter were normalized to the positive control values.
Murine bone marrow monocytes were purified from the bone marrow of eight- to twelve-week-old mice and were seeded for osteoclast differentiation in the presence of recombinant M-CSF and RANKL for 72-96 h. […] At the end of the differentiation period, osteoclasts were fixed and stained for Tartrate resistant acid phosphatase activity (TRAP). Osteoclast differentiation and spreading were evaluated in terms of three parameters: number of osteoclasts, number of nuclei in osteoclasts and osteoclast surface area.
The positive control contains a differentiation medium with both M-CSF WT and RANKL. The negative control contains only […], which keeps the cells alive though not differentiated. Varying concentrations of M-CSFM and M-CSFM,M27R were added to the cells, that were grown for five days. Then the cells were fixated and stained using TRAP staining for differentiated osteoclasts. […]

Molecule	hydrodynamic radius [1] [nm]	number of osteoclasts and nuclei at 5000 nM ([2]; BMMs, 5000 nM)	effect on osteoclast differentiation ([2]; Example 8, 50 nM, 1 μM and 5 μM with M-CSF and RANKL, 72-96 h)	effect on osteoclast differentiation/formation [2]	number of osteoclasts and number of nuclei ([2]; BMMs)	osteoclast formation ([2]; BMMs)	numbers of osteoclasts and their nuclei ([2]; BMMs, 50, 1000 and 5000 nM without murine M-CSFWT)
M-CSFM: 158 amino acid M-CSF with cysteine at position 31 replaced by serine (SEQ ID NO: 2) (protein) EEVSEYCSHMIGSGHLQSLQRLIDSQMETSSQITFEFVDQEQLKDPVCYLKKAFLLVQDIMEDTMRFRDNTPNAIAIVQLQELSLRLKSCFTKDYEEHDKACVRTFYETPLQLLEKVKNVFNETKNLLDKDWNIFSKNCNNSFAECSSQGHERQSEGS	3.56±0.24	reduction in both osteoclasts and nuclei number	markedly enhanced osteoclast differentiation	acts as an inducer for osteoclast differentiation	the opposite result	highly accelerated in the two lower concentrations	
M-CSFWT: wild-type human M-CSF, disulfide-bond-linked homodimer which binds and activates c-FMS (protein) EEVSEYCSHMIGSGHLQSLQRLIDSQMETSCQITFEFVDQEQLKDPVCYLKKAFLLVQDIMEDTMRFRDNTPNAIAIVQLQELSLRLKSCFTKDYEEHDKACVRTFYETPLQLLEKVKNVFNETKNLLDKDWNIFSKNCNNSFAECSSQGHERQSEGS	3.73±0.19						inhibits both the numbers of osteoclasts and their nuclei, in a dose dependent manner
M-CSFC31S,M27R: M-CSF double mutant containing both C31S and M27R; monomeric, monospecific c-FMS antagonist (protein) EEVSEYCSHMIGSGHLQSLQRLIDSQRETSSQITFEFVDQEQLKDPVCYLKKAFLLVQDIMEDTMRFRDNTPNAIAIVQLQELSLRLKSCFTKDYEEHDKACVRTFYETPLQLLEKVKNVFNETKNLLDKDWNIFSKNCNNSFAECSSQGHERQSEGS	2.94±0.10			inhibits osteoclast formation in a dose dependent manner	a decrease in both parameters, in a dose-dependent manner	significantly inhibited, in a dose-dependent manner	
